The supplement of paper PMC10598134
± gives the standard deviation.

Assay: collision cross section of unmodified peptide (TIMS, N2, iRT-aligned); higher = larger / more extended gas-phase ion
Outline: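 Collision cross section was derived from the Mason-Schamp equation. Each value averages 1–3 technical replicates of the most abundant feature per charge state, measured on a timsTOF Pro/HT in dda-PASEF mode (nitrogen, ~2.4 mbar) after a 120-min nanoflow C18 gradient at 60 °C. Synthetic peptide pools (~100 fmol/µL in 2% acetonitrile/0.1% formic acid, iRT standard spiked 1:40) were identified with MaxQuant, and 1/K0 was calibrated with three reference ions and aligned run-wise to the median iRT peptide deviation.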

Substance | collision cross section (charge state: 2) | collision cross section (charge state: 3)
VLDSGAPIKIPVGPETLGR | 485.73 ± 3 Å² | 510.9 ± 2.1 Å²
VLPSITTEILK | 373.13 ± 0.14 Å² | –
VLSIGDGIAR | 348.04 ± 0.14 Å² | –
VLTANSNPSSPSAAKR | 431.51 ± 2 Å² | 517.98 ± 8.8 Å²
VMVAPISGSVTTGTK | 396.94 ± 0.14 Å² | –
VNALKNLQVK | 370.39 ± 1.1 Å² | 436.61 ± 6 Å²
VNIGQGSHPQKVK | 416.89 ± 2.1 Å² | 469.44 ± 3.7 Å²
VNVEAPDVNLEGLGGKLK | 454.51 ± 2.9 Å² | 537.97 ± 2.9 Å²
VPGALAAAKAAK | 365.46 ± 0.4 Å² | 442.33 ± 1.2 Å²
VPGVGLPGVYPGGVLPGAR | 445.04 ± 0.9 Å² | 532.89 ± 0.34 Å²
VPQAQPTKPALK | 384.79 ± 0.67 Å² | 486.38 ± 2.7 Å²
VPTTEKPTVTVNFR | 427.25 ± 2.6 Å² | 517.02 ± 4.3 Å²
VQFAPEK | 317.04 ± 1.1 Å² | –
VQFAPEKPGPQPSAETTR | – | 507.38 ± 9.7 Å²
VQGGALEDSQLVAGVAFKK | 499.26 ± 4.6 Å² | 546.92 ± 0.83 Å²
VRFHNPR | 337.63 ± 0.7 Å² | 406.2 ± 6.3 Å²
VRLQTTLR | 347.32 ± 0.41 Å² | 442.81 ± 6.5 Å²
VSFLSALEEYTK | 392.46 ± 0.78 Å² | –
VSPASSVDSNIPSSQGYKK | 469.69 ± 3.1 Å² | 542.55 ± 1.8 Å²
VTGGIFSVTK | 335.98 ± 0.58 Å² | –
VTLEVGKVIQQGR | 428.45 ± 2.5 Å² | 496.48 ± 2.3 Å²
VTPHPSPRGSPLPTPK | 427.24 Å² | 550.88 ± 0.55 Å²
VTRYPILGIPQAHR | – | 523.45 ± 1.1 Å²
VVDLLAPYAK | 358.2 ± 7.9 Å² | –
VVPGYGHAVLR | 378.3 ± 0.16 Å² | 449.83 ± 0.86 Å²
VYIASSSGSTAIKK | 426.35 ± 1.9 Å² | 494.89 ± 3.4 Å²
VYPSSLSK | 317.31 ± 0.73 Å² | –
VYSGHQGR | 325.3 ± 0.79 Å² | 409 ± 1.1 Å²

Substance | collision cross section (charge state: 2) | collision cross section (charge state: 3)
VYSLFLDESR | 376.99 ± 0.94 Å² | –
VYVGNLGTGAGK | 357.65 ± 0.15 Å² | –
YADLTEDQLPSCESLK | 447.81 ± 1 Å² | –
YEATSVQQK | 342.24 ± 1.4 Å² | –
YEEIVKEVSTYIK | 443.47 ± 2.8 Å² | 492.72 ± 2.3 Å²
YEITEQR | 326.96 ± 0.72 Å² | –
YEQEHAAIQDKLFQVAK | – | 555.79 ± 2.3 Å²
YGLIFHSTFIGRAAAK | – | 526.88 Å²
YGRGQLNYPLPDFSK | 433.52 Å² | 510.01 ± 10 Å²
YHEDIFGLTLR | 388.91 ± 0.75 Å² | 462.33 ± 2 Å²
YIDNQVVSTKGER | 414.64 ± 0.66 Å² | 500.48 ± 1 Å²
YIEIYVQKVNPSR | 435.38 ± 2.7 Å² | 505.68 ± 2.1 Å²
YIGTGHADTTK | 357.91 ± 0.48 Å² | 452.61 ± 1.1 Å²
YILIPASQQPK | 375.08 ± 0.48 Å² | –
YLHDESGLNR | 361.42 ± 0.55 Å² | 447.46 ± 1.1 Å²
YRGDYDR | 327.87 ± 0.56 Å² | 412.63 ± 6.2 Å²
YSRGAGLGFSTAPNK | 407.91 ± 1.8 Å² | 476.78 ± 0.4 Å²
YSSNLGNFNYEQRGAFR | – | 529.47 ± 0.012 Å²
YSSSSIPEPFGSRGSPR | 433.42 Å² | 521.94 ± 0.21 Å²
YSTSGSSGLTTGK | 373.3 ± 0.54 Å² | –
YTAILNQIPSHSSSIR | 475.98 ± 0.82 Å² | 510.98 ± 3.8 Å²
YTAQVDAEEK | 355.03 ± 0.55 Å² | –
YTCSFCGK | 338.71 ± 0.48 Å² | –
YTQVGPDHNR | 354.55 ± 0.7 Å² | 423.12 ± 2 Å²
YTTNNSSEQR | 353.04 ± 0.15 Å² | –
YVGESEANIR | 358.37 ± 0.55 Å² | –
YVHADAPTNK | 347.85 ± 2.8 Å² | 415.08 ± 2 Å²
